{"source": "patent US20180044401A1", "key": {"[1]": {"target": "IgG-Fc of anti-TNFα monoclonal antibody (Remicade)", "experiment": "SPR Biacore, Fc immobilized at about 10000 RU, response 1 minute after addition"}, "[2]": {"target": "IgG-Fab prepared from anti-TNFα monoclonal antibody (Remicade)", "experiment": "SPR Biacore, Fab immobilized at about 10000 RU, response 1 minute after addition"}}}
{"substance": "peptide having the amino acid sequence of β1 domain of Protein G (SEQ ID NO: 32) (from UniProt P06654 228-282)", "values": [{"measurement": "inclination of approximate curve (binding response against peptide concentration)", "setting": "[1]", "result": 0.9}, {"measurement": "inclination of approximate curve (binding response against peptide concentration)", "setting": "[2]", "result": 0.1}]}
